Measured values from patent US7662384B2, “Use of anti-α5β1 antibodies to inhibit cancer cell proliferation” (Facet Biotech Corporation, priority 2004, dated 2010).

Columns and labels:
[1] = target: T1, α5β1 integrin on the cell surface of A2058 (Homo sapiens, UniProt P05556+P08648); test: FACS analysis of cancer cell line with IIA1; format: binding; details: A2058 (melanoma); IIA1 10 μg/ml; background MFI ~5
T1 construct: endogenous in cells
Method: (§1) Cells were removed with 5 mM EDTA in Tris-HCl (pH 8.0) and blocked by centrifugation in Hank's balanced salt solution containing 3% heat inactivated FBS, 1% normal goat serum (Sigma) and 1% BSA at 4° C. for 5 minutes. Cells were incubated for 30-60 minutes at 4° C. with the mouse anti-α5β1 antibody, IIA1 (10 μg/ml) in FACS buffer (PBS containing 0.1% BSA). Excess monoclonal antibody was removed by centrifugation and cells were washed two times with FACS buffer prior to resuspending in PE-anti-mouse IgG (H+ L) antibody (Southern Biotech, 1:400 dilution) for 30-60 minutes at 4° C. After washing cells were re-suspended in FACS buffer containing propidium iodide (1 μg/ml). Mean fluorescence intensity (MFI) was measured on a FACSCalibur (Becton Dickinson). Background MFI was ˜5.

[2] = target: T2, α5β1 integrin on the cell surface of A375 (Homo sapiens, UniProt P05556+P08648); test: FACS analysis of cancer cell line with IIA1; format: binding; details: A375 (melanoma); IIA1 10 μg/ml; background MFI ~5
T2 construct: endogenous in cells
Method: as §1

[3] = target: T3, α5β1 integrin on the cell surface of A498 (Homo sapiens, UniProt P05556+P08648); test: FACS analysis of cancer cell line with IIA1; format: binding; details: A498 (renal); IIA1 10 μg/ml; background MFI ~5
T3 construct: endogenous in cells
Method: as §1

[4] = target: T4, α5β1 integrin on the cell surface of DU145 (Homo sapiens, UniProt P05556+P08648); test: FACS analysis of cancer cell line with IIA1; format: binding; details: DU145 (prostate); IIA1 10 μg/ml; background MFI ~5
T4 construct: endogenous in cells
Method: as §1

[5] = target: T5, α5β1 integrin on the cell surface of EKVX (Homo sapiens, UniProt P05556+P08648); test: FACS analysis of cancer cell line with IIA1; format: binding; details: EKVX (lung); IIA1 10 μg/ml; background MFI ~5
T5 construct: endogenous in cells
Method: as §1

[6] = target: T6, α5β1 integrin on the cell surface of ES-2 (Homo sapiens, UniProt P05556+P08648); test: FACS analysis of cancer cell line with IIA1; format: binding; details: ES-2 (ovarian); IIA1 10 μg/ml; background MFI ~5
T6 construct: endogenous in cells
Method: as §1

[7] = target: T7, α5β1 integrin on the cell surface of H460 (Homo sapiens, UniProt P05556+P08648); test: FACS analysis of cancer cell line with IIA1; format: binding; details: H460 (lung); IIA1 10 μg/ml; background MFI ~5
T7 construct: endogenous in cells
Method: as §1

[8] = target: T8, α5β1 integrin on the cell surface of HCT-116 (Homo sapiens, UniProt P05556+P08648); test: FACS analysis of cancer cell line with IIA1; format: binding; details: HCT-116 (colon); IIA1 10 μg/ml; background MFI ~5
T8 construct: endogenous in cells
Method: as §1

[9] = target: T9, α5β1 integrin on the cell surface of HT144 (Homo sapiens, UniProt P05556+P08648); test: FACS analysis of cancer cell line with IIA1; format: binding; details: HT144 (melanoma); IIA1 10 μg/ml; background MFI ~5
T9 construct: endogenous in cells
Method: as §1

[10] = target: T10, α5β1 integrin on the cell surface of NW231 (Homo sapiens, UniProt P05556+P08648); test: FACS analysis of cancer cell line with IIA1; format: binding; details: NW231 (breast); IIA1 10 μg/ml; background MFI ~5
T10 construct: endogenous in cells
Method: as §1

[11] = target: T11, α5β1 integrin on the cell surface of SW839 (Homo sapiens, UniProt P05556+P08648); test: FACS analysis of cancer cell line with IIA1; format: binding; details: SW839 (renal); IIA1 10 μg/ml; background MFI ~5
T11 construct: endogenous in cells
Method: as §1

[12] = target: T12, α5β1 integrin on the cell surface of UACC-62 (Homo sapiens, UniProt P05556+P08648); test: FACS analysis of cancer cell line with IIA1; format: binding; details: UACC-62 (melanoma); IIA1 10 μg/ml; background MFI ~5
T12 construct: endogenous in cells
Method: as §1

[13] = minimum effective in vitro concentration
angiogenesis = details: rabbit eye model; cited from earlier work

T7 sequence (P08648 42-894 limits assumed): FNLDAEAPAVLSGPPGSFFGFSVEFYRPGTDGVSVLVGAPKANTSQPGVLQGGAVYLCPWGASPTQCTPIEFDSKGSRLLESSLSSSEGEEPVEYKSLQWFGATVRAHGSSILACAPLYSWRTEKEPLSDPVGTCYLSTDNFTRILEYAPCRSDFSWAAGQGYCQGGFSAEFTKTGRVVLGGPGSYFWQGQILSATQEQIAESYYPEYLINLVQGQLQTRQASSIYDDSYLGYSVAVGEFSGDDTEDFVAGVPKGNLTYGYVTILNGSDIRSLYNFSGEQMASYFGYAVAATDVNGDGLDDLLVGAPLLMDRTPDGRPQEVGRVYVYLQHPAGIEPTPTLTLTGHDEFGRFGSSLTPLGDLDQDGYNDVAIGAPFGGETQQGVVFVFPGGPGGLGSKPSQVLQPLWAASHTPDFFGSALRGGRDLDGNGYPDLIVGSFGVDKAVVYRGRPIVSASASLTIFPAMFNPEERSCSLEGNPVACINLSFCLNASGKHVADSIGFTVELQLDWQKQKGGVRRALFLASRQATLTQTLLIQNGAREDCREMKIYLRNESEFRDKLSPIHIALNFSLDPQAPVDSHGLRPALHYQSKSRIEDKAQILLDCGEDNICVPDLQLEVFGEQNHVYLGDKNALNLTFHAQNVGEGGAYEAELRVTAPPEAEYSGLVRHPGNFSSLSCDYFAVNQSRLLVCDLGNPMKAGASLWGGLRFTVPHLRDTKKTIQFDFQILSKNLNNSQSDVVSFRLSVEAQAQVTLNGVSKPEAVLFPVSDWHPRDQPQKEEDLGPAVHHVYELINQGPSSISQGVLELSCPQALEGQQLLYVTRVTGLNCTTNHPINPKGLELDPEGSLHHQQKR
T7 sequence (P08648 895-1049 limits assumed): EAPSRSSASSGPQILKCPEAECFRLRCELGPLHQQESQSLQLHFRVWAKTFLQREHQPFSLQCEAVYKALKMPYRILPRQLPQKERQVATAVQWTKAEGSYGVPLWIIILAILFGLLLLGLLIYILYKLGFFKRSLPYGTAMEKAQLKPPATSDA
T7 sequence (P05556 21-798): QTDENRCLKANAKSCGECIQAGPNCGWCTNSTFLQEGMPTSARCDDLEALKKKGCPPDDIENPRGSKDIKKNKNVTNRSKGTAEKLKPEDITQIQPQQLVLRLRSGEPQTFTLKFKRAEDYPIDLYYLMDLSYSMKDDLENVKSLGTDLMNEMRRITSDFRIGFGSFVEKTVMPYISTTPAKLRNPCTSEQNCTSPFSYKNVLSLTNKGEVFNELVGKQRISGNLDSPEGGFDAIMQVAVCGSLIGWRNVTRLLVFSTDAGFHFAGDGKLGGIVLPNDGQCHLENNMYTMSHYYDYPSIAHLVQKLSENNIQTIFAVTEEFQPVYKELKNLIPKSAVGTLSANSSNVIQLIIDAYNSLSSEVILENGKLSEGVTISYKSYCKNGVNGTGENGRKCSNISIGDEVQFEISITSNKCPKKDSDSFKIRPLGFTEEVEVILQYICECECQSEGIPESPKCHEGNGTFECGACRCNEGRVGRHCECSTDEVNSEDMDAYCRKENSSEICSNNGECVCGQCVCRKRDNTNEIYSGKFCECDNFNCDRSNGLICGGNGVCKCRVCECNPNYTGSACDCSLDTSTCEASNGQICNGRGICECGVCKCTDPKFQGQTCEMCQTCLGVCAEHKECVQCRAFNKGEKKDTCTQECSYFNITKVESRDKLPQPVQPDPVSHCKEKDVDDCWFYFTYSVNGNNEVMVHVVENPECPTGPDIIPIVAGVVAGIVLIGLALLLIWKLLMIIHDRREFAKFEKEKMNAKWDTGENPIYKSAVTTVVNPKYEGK
T10 sequence (P08648 42-894 limits assumed): as the sequence (P08648 42-894 limits assumed) above
T10 sequence (P08648 895-1049 limits assumed): as the sequence (P08648 895-1049 limits assumed) above
T10 sequence (P05556 21-798): as the sequence (P05556 21-798) above
T4 sequence (P08648 42-894 limits assumed): as the sequence (P08648 42-894 limits assumed) above
T4 sequence (P08648 895-1049 limits assumed): as the sequence (P08648 895-1049 limits assumed) above
T4 sequence (P05556 21-798): as the sequence (P05556 21-798) above
T8 sequence (P08648 42-894 limits assumed): as the sequence (P08648 42-894 limits assumed) above
T8 sequence (P08648 895-1049 limits assumed): as the sequence (P08648 895-1049 limits assumed) above
T8 sequence (P05556 21-798): as the sequence (P05556 21-798) above
T12 sequence (P08648 42-894 limits assumed): as the sequence (P08648 42-894 limits assumed) above
T12 sequence (P08648 895-1049 limits assumed): as the sequence (P08648 895-1049 limits assumed) above
T12 sequence (P05556 21-798): as the sequence (P05556 21-798) above
T9 sequence (P08648 42-894 limits assumed): as the sequence (P08648 42-894 limits assumed) above
T9 sequence (P08648 895-1049 limits assumed): as the sequence (P08648 895-1049 limits assumed) above
T9 sequence (P05556 21-798): as the sequence (P05556 21-798) above
T11 sequence (P08648 42-894 limits assumed): as the sequence (P08648 42-894 limits assumed) above
T11 sequence (P08648 895-1049 limits assumed): as the sequence (P08648 895-1049 limits assumed) above
T11 sequence (P05556 21-798): as the sequence (P05556 21-798) above
T1 sequence (P08648 42-894 limits assumed): as the sequence (P08648 42-894 limits assumed) above
T1 sequence (P08648 895-1049 limits assumed): as the sequence (P08648 895-1049 limits assumed) above
T1 sequence (P05556 21-798): as the sequence (P05556 21-798) above
T2 sequence (P08648 42-894 limits assumed): as the sequence (P08648 42-894 limits assumed) above
T2 sequence (P08648 895-1049 limits assumed): as the sequence (P08648 895-1049 limits assumed) above
T2 sequence (P05556 21-798): as the sequence (P05556 21-798) above
T6 sequence (P08648 42-894 limits assumed): as the sequence (P08648 42-894 limits assumed) above
T6 sequence (P08648 895-1049 limits assumed): as the sequence (P08648 895-1049 limits assumed) above
T6 sequence (P05556 21-798): as the sequence (P05556 21-798) above
T3 sequence (P08648 42-894 limits assumed): as the sequence (P08648 42-894 limits assumed) above
T3 sequence (P08648 895-1049 limits assumed): as the sequence (P08648 895-1049 limits assumed) above
T3 sequence (P05556 21-798): as the sequence (P05556 21-798) above
T5 sequence (P08648 42-1049): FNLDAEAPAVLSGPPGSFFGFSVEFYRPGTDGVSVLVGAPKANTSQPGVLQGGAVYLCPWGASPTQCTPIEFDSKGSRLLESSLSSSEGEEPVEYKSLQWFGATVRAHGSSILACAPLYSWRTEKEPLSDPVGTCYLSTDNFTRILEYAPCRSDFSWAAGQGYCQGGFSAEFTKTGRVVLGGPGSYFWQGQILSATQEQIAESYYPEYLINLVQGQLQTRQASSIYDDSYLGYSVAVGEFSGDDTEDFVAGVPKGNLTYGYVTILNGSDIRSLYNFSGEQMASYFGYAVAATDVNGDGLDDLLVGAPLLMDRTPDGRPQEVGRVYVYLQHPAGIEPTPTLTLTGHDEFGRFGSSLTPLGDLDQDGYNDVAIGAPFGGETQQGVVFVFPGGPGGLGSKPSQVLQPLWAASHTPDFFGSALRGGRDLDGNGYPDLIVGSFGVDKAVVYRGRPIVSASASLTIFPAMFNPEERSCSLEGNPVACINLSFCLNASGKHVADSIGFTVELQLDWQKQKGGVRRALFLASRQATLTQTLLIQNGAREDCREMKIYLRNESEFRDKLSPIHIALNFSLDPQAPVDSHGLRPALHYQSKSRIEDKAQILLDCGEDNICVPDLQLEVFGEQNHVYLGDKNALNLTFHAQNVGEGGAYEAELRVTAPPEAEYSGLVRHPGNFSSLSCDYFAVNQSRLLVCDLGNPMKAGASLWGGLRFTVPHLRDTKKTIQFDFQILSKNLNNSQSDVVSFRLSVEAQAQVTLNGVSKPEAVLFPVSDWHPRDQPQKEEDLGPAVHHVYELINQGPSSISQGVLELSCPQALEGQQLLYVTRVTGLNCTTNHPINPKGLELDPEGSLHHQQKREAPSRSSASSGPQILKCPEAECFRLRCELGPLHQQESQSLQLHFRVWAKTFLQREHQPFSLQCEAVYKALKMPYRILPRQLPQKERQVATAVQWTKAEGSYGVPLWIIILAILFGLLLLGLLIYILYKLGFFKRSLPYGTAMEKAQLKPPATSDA
T5 sequence (P08648 895-1049 limits assumed): as the sequence (P08648 895-1049 limits assumed) above
T5 sequence (P05556 21-798): as the sequence (P05556 21-798) above

α5β1 Surface Expression (MFI) [1] [MFI]	α5β1 Surface Expression (MFI) [2] [MFI]	α5β1 Surface Expression (MFI) [3] [MFI]	α5β1 Surface Expression (MFI) [4] [MFI]	α5β1 Surface Expression (MFI) [5] [MFI]	α5β1 Surface Expression (MFI) [6] [MFI]	α5β1 Surface Expression (MFI) [7] [MFI]	α5β1 Surface Expression (MFI) [8] [MFI]	α5β1 Surface Expression (MFI) [9] [MFI]	α5β1 Surface Expression (MFI) [10] [MFI]	α5β1 Surface Expression (MFI) [11] [MFI]	α5β1 Surface Expression (MFI) [12] [MFI]	Molecule	minimum effective in vitro concentration [13] [µg/mL]	in vivo anti-angiogenic efficacy (angiogenesis)
36.2	156.1	67.1	87.5	36.7	132.8	87.5	42.5	102.1	132.2	65.8	88.5	IIA1: parent mouse IgG1 class anti-α5β1 antibody shown to inhibit α5β1 integrin binding to fibronectin (antibody, V domains shown, mus muscalus) VH: MAVLGLLLCLVTFPSCVLSQVQLKESGPGLVAPSQSLSITCTISGFSLTDYGVHWVRQPPGKGLEWLVVIWSDGSSTYNSALKSRMTIRKDNSKSQVFLIMNSLQTDDSAMYYCARHGTYYGMTTTGDALDYWGQGTSVTVSS VL: MDFQVQIFSFLLISASVIMSRGQIVLTQSPAIMSASLGERVTMTCTASSSVSSNYLHWYQQKPGSAPNLWIYSTSNLASGVPARFSGSGSGTSYSLTISSMEAEDAATYYCHQYLRSPPTFGGGTKLEIK		
												M200: chimeric IgG4 anti-α5β1 antibody derived from IIA1; generic name volociximab (antibody, V domains shown, chimeric antibody, chimeric IgG4 anti-α5β1 antibody derived from IIA1; generic name volociximab) VH: MAVLGLLLCLVTFPSCVLSQVQLKESGPGLVAPSQSLSITCTISGFSLTDYGVHWVRQPPGKGLEWLVVIWSDGSSTYNSALKSRMTIRKDNSKSQVFLIMNSLQTDDSAMYYCARHGTYYGMTTTGDALDYWGQGTSVTVSS VL: MDFQVQIFSFLLISASVIMSRGQIVLTQSPAIMSASLGERVTMTCTASSSVSSNYLHWYQQKPGSAPNLWIYSTSNLASGVPARFSGSGSGTSYSLTISSMEAEDAATYYCHQYLRSPPTFGGGTKLEIKDMSVDMSV	2 to 3	in vivo anti-angiogenic efficacy
